Results: patent publication US20230090901A1 (GAMMADELTA THERAPEUTICS, published 2023)

B1: G4_12 (antibody, human IgG1, V domains shown)
VH: EVQLLESGGGLVQPGGSLRLSCAASGFTVSSNYMSWVRQAPGKGLEWVSVIYSGGSTYYADSVKGRFTISRHNSKNTLYLQMNSLRAEDTAVYYCARVANGDFLDYWGRGTLVTVSS
VL: SQSVLTQPASVSGSPGQSITISCTGTSSDVGGYNFVSWYQQHPGKAPKLMIYEVTNRPSGVPDRFSGSKSGNTASLTISGLQAEDEADYYCSSHASPRVFGTGTKVTVLG
notes: also called 1140_P01_G08; clone G4_12
B2: G4_20 (antibody, human IgG1, V domains shown)
VH: QVQLVESGAEVKKPGASVKVSCKASGGTFSSYAISWVRQAPGQGLEWMGGIIPIFGTANYAQKFQGRVTITVDKSTRTAYMELSSLRSKDTAVYYCARGNSRSDAFDIWGQGTMVTVSS
VL: SSYELTHPPSVSVSPGQTASITCSGDKLGDKFVSWYHQKPGQSPVLVIYQDSKRPSGIPERFSGSNSGNTATLTISGTRAMDEADYYCQAWDSSTVVFGGGTKLTVLG
notes: also called 1254_P02_G02; clone G4_20
B3: G4_18 (antibody, human IgG1, V domains shown)
VH: EVQLVESGAEVKKPGASVKVSCKASGYTFTGYYMHWVRQAPGQGLEWMGRINPNSGGTNYAQKFQGRVTMTRDASISTAYMELSRLRSDDTAVYYCARDLDLSSLDYWGRGTLVTVSS
VL: SSYELTQPPSVTESPGQTARITCSGDALAKQYAYWYQQKPGQAPVLVIYRDSERPSEIPERFSGSSSGTTVTLTISGVQAEDEADYYCQSADSSGTYTVFGGGTKLTVLG
notes: also called 1254_P01_H04; clone G4_18
B4: G4_27 (antibody, human IgG1, V domains shown)
VH: QVQLVQSGAEVKKPGESLKISCKSSGYSFTSYWIGWVRQMPGKGLEWMGIIYPGDSDTRYSPSFQGQVTFSADESISTAYLQWSSLKASDTAMYYCARHGAYGDYPDTFDIWGQGTLVTVSS
VL: SSYELTQDPAVSVALGQTVSITCQGDSLRNFYANWYQQKPGQAPVLVIYGKNNRPSGIPDRFSGSSSGNTASLTITGAQAEDEADYYCNSRDSSGNHLVFGGGTQLTVLG
notes: also called 1248_P02_C10; clone G4_27

The binders below were run against T1, L1 (DV1-GV4), soluble leucine zipper γδ TCR heterodimer of a delta variable 1 chain and a gamma variable 4 … (human) (assay: SPR (Reichert 4SPR), L1 coupled to chip, IgG1 flowed, steady state 1:1 fit; average).
T1 construct: also called bt-L1; not shown: histidine tag/linker said to follow the zipper
T1 sequence (main, as listed by the source, chain 1 of 2): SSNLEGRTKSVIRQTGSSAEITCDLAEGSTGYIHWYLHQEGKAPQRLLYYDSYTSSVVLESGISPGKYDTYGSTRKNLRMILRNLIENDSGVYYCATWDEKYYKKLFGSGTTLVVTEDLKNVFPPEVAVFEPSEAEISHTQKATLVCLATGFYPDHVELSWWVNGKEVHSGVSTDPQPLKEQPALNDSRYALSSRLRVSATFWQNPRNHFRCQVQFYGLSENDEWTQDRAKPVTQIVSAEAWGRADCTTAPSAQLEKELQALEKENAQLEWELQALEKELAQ
T1 sequence (main, as listed by the source, chain 2 of 2): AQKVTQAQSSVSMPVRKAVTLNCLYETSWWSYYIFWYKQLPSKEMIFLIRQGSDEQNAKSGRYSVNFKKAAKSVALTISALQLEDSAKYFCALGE

| Kd [nM] | Binder |
| --- | --- |
| 19 | B1 |
| 52.5 | B2 |

The binders below were run against T1, L1 (DV1-GV4), soluble leucine zipper γδ … (assay: SPR (Reichert 4SPR), L1 coupled to chip, IgG1 flowed, steady state 1:1 fit; experiment 2).
Experimental: (§1) In brief, the binding affinity of the antibodies to target (i.e. the human Vγ4 chain of a γδ TCR) was established by SPR analysis using a Reichert 4SPR instrument (Reichert Technologies). […] All experiments were performed at room temperature, with the samples kept at 4° C. before flowing over the chip. Steady state fitting was determined according to Langmuir 1:1 binding using software TraceDrawer (Reichert Technologies).

| Kd [nM] | Binder |
| --- | --- |
| 20.2 | B1 |
| 62.1 | B2 |
| 19.9 | B3 |

Each binder was assayed against T1, L1 (DV1-GV4), soluble leucine zipper γδ … (assay: DELFIA ELISA, coated antigen;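 also: binding of antibody supernatants or protein-A purified antibodies to plate-coated antigen (3 µg/ml recombinant TCR or BSA), 1 h incubation at room temperature, DELFIA readout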).
Experimental: (§2) A DELFIA ELISA binding method was also employed to assess binding of antibody supernatants or further protein-A purified antibody. In brief, MaxiSorp plates were coated with 3 μg/ml of antigen BSA or L1 (DV1-GV4), L2 (DV1-GV2), L3 (DV1-GV8), or L4 (DV2-GV4) recombinant TCR antigen. Plates were then washed with PBS, blocked with PBS/skimmed milk and then test article added and incubated for 1 hour at room temperature.

| DELFIA ELISA response (FU) | Binder |
| --- | --- |
| 237000 | B1 |
| 184000 | B2 |
| 197000 | B3 |
| 138000 | B4 |

What follows are binders tested against L3 (DV1-GV8), soluble leucine zipper γδ TCR heterodimer of a delta variable 1 chain and a gamma variable 8 … (human) (assay: DELFIA ELISA, coated antigen;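 also: binding of antibody supernatants or protein-A purified antibodies to plate-coated antigen (3 µg/ml recombinant TCR or BSA), 1 h incubation at room temperature, DELFIA readout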).
Chain of L3 (DV1-GV8), soluble leucine zipper γδ TCR heterodimer of a delta variable 1 chain and a gamma variable 8 … (human) (chain, as listed by the source mutant, chain 1 of 2): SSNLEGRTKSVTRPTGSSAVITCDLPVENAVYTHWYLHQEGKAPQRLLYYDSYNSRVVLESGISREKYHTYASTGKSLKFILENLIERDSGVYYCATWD
Chain of L3 (DV1-GV8), soluble leucine zipper γδ TCR heterodimer of a delta variable 1 chain and a gamma variable 8 … (human) (chain, as listed by the source mutant, chain 2 of 2): as the sequence (main, as listed by the source, chain 2 of 2) above
Experimental: as §2

| DELFIA ELISA response (FU) | Binder |
| --- | --- |
| 252 | B1 |
| 239 | B2 |
| 185 | B3 |
| 1690 | B4 |

The binders below were run against L2 (DV1-GV2), soluble leucine zipper γδ TCR heterodimer of a delta variable 1 chain and a gamma variable 2 … (human) (assay: DELFIA ELISA, coated antigen;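 also: binding of antibody supernatants or protein-A purified antibodies to plate-coated antigen (3 µg/ml recombinant TCR or BSA), 1 h incubation at room temperature, DELFIA readout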).
Chain of L2 (DV1-GV2), soluble leucine zipper γδ TCR heterodimer of a delta variable 1 chain and a gamma variable 2 … (human) (chain, as listed by the source mutant, chain 1 of 2): as the sequence (main, as listed by the source, chain 1 of 2) above, with T30N, L48Q, T54N, S56K, I63V, D69Y, G72A, K76N, M80L counted along it
Chain of L2 (DV1-GV2), soluble leucine zipper γδ TCR heterodimer of a delta variable 1 chain and a gamma variable 2 … (human) (chain, as listed by the source mutant, chain 2 of 2): as the sequence (main, as listed by the source, chain 2 of 2) above
Experimental: as §2

| DELFIA ELISA response (FU) | Binder |
| --- | --- |
| 229 | B1 |
| 147 | B2 |
| 66 | B3 |
| 579 | B4 |

These binders were tested against T2, BSA (bovine, UniProt P02769) (assay: DELFIA ELISA, coated antigen;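 also: binding of antibody supernatants or protein-A purified antibodies to plate-coated antigen (3 µg/ml recombinant TCR or BSA), 1 h incubation at room temperature, DELFIA readout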).
T2 construct: coated at 3 µg/ml; also called bovine serum albumin, control antigen of the DELFIA ELISA
T2 sequence (P02769 25-607 limits assumed): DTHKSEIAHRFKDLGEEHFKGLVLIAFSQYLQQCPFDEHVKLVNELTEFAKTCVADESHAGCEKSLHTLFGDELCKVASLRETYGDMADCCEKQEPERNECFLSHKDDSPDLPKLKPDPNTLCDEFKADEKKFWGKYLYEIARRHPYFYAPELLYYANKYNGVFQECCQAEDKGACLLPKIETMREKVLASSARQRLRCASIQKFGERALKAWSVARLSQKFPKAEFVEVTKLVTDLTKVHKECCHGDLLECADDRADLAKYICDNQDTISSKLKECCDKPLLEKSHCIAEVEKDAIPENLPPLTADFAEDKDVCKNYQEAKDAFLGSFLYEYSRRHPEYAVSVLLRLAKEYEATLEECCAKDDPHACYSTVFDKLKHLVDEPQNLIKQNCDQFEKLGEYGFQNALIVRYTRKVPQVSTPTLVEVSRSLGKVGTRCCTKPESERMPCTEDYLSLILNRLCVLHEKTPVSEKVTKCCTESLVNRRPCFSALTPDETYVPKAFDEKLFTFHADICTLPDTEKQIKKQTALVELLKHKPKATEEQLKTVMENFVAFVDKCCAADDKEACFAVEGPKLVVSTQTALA
Experimental: as §2

| DELFIA ELISA response (FU) | binding result | Binder |
| --- | --- | --- |
| 80 | no binding | B1 |
| 132 | no binding | B2 |
| 67 | no binding | B3 |
| 40 | no binding | B4 |

Each binder was assayed against T1, L1 (DV1-GV4), soluble leucine zipper γδ … (assay: SPR (Reichert 4SPR), L1 coupled to chip, IgG1 flowed, steady state 1:1 fit; average column (one experiment)).
Experimental: as §1

| Kd [nM] | Binder |
| --- | --- |
| 19.9 | B3 |
| 261 | B4 |

Each binder was assayed against T1, L1 (DV1-GV4), soluble leucine zipper γδ … (assay: SPR (Reichert 4SPR), L1 coupled to chip, IgG1 flowed, steady state 1:1 fit; experiment 1).
Experimental: as §1

| Kd [nM] | Binder |
| --- | --- |
| 17.8 | B1 |
| 43 | B2 |
| 261 | B4 |

These binders were tested against T3, Vγ4 chain-bearing γδ TCR on primary human Vγ4+ T cells (skin, PBMC, gut) (human) (assay: flow cytometry titration on skin-derived Vγ4+ T cells, left plot, anti-human IgG1 secondary).
T3 construct: Polyclonal natural receptors; only the germline Vγ4 region is common to them; also called primary Vγ4+ T cells; primary skin-derived Vγ4+ T cells
T3 sequence (main, as listed by the source): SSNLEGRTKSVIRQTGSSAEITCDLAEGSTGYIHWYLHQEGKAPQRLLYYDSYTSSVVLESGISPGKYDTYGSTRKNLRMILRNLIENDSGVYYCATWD
Experimental: Detection was performed by addition of a secondary, fluorescent dye-conjugated antibody against human IgG1 (IS11-12E4.23.20). Cells were then fixed and acquired on the MACSQuant16 flow cytometer. Cells were gated as single, live, IgG1 (Vγ4)⁺. Data shown are the median fluorescent intensity (MFI) of secondary detection antibody detected bound to Vγ4⁺ cells.

| EC50 (read off the curve) [µg/mL] | Binder |
| --- | --- |
| ~1 | B1 |
| ~2 | B2 |
